This passage reports stoichiometry N (subunits per capsid) results from PMC8145704, “Conformational Plasticity of Hepatitis B Core Protein Spikes Promotes Peptide Binding Independent of the Secretion Phenotype” (Microorganisms, 2021).

This assay deals with T1, WT-HBc capsids (hepatitis B core protein, genotype D; strain ayw; GenBank: V01460.1) (Hepatitis B virus (genotype D; strain ayw)), P03146.
T1 chain: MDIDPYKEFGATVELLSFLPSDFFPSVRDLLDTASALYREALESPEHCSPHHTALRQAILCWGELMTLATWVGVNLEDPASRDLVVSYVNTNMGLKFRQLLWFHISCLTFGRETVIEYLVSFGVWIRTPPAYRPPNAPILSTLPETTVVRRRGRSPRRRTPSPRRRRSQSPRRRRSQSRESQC
The experiment in a line: negative-staining electron microscopy. Particulars: remark: other sources report otherwise.

B1: WT-HBc capsids (hepatitis B core protein, genotype D; strain ayw; GenBank: V01460.1), P03146 1-183 (natural protein)
chain: T1 chain
As to B1, the stoichiometry N (subunits per capsid) was found to be 240.
